Test results as given in paper PMC4748814.
Where a chain is given by its changes, count along the chain named. pKd: −log10 of the molar value.

Key:
[1] = target: T1, PNPase S437-9A (active site mutant) S437A;S438A;S439A (UniProt P05055); test: BLI; settings: EMSA: 20 mM Tris pH 7.5, 100 mM NaCl, 1 mM MgCl2, 1 mM DTT, 30 C, 0.2 uM RNA; BLI: same buffer + 1 mg/mL acetylated BSA; ITC: 20 mM Tris-HCl pH 7.5, 1 mM …
T1 sequence: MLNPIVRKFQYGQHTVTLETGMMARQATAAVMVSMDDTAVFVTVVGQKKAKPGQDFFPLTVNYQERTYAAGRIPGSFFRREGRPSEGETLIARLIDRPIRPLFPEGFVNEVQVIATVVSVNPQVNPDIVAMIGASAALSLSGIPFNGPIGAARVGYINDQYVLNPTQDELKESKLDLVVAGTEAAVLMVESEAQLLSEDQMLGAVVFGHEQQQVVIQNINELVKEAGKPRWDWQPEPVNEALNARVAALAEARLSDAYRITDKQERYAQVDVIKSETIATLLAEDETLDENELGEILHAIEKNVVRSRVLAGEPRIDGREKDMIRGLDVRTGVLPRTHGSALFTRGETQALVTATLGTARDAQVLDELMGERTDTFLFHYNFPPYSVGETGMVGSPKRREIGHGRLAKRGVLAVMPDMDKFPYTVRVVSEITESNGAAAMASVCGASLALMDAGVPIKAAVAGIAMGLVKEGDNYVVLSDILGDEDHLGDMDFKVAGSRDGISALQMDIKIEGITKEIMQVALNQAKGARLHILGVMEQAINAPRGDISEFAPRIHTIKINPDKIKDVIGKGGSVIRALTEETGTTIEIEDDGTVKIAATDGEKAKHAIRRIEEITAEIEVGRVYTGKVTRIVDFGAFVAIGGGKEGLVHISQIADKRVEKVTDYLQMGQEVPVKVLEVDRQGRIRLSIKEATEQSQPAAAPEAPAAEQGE

PNPase [2] = target: T2, PNPase (UniProt P05055); test: BLI; settings: EMSA: 20 mM Tris pH 7.5, 100 mM NaCl, 1 mM MgCl2, 1 mM DTT, 30 C, 0.2 uM RNA; BLI: same buffer + 1 mg/mL acetylated BSA; ITC: 20 mM Tris-HCl pH 7.5, 1 mM …
T2 sequence: T1 sequence with A437S, A438S, A439S

[3] = target: T1, PNPase S437-9A (active site mutant) S437A;S438A;S439A; test: EMSA; settings: EMSA: 20 mM Tris pH 7.5, 100 mM NaCl, 1 mM MgCl2, 1 mM DTT, 30 C, 0.2 uM RNA; BLI: same buffer + 1 mg/mL acetylated BSA; ITC: 20 mM Tris-HCl pH 7.5, 1 mM …
PNPase [4] = target: T2, PNPase; test: EMSA; settings: EMSA: 20 mM Tris pH 7.5, 100 mM NaCl, 1 mM MgCl2, 1 mM DTT, 30 C, 0.2 uM RNA; BLI: same buffer + 1 mg/mL acetylated BSA; ITC: 20 mM Tris-HCl pH 7.5, 1 mM …
[5] = target: PNPase;Hfq (Escherichia coli K-12 MG1655 derivative?;Escherichia coli?) (UniProt P05055+P0A6X3); test: EMSA; settings: EMSA: 20 mM Tris pH 7.5, 100 mM NaCl, 1 mM MgCl2, 1 mM DTT, 30 C, 0.2 uM RNA; BLI: same buffer + 1 mg/mL acetylated BSA; ITC: 20 mM Tris-HCl pH 7.5, 1 mM …
PNPase;Hfq (Escherichia coli K-12 MG1655 derivative?;Escherichia coli?), sequence (P0A6X3 whole entry, one chain of several): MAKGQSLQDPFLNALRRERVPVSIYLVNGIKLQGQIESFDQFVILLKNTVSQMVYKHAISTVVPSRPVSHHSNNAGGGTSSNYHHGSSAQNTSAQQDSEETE

Hfq = Hfq (UniProt P0A6X3); test: EMSA; settings: EMSA: 20 mM Tris pH 7.5, 100 mM NaCl, 1 mM MgCl2, 1 mM DTT, 30 C, 0.2 uM RNA; BLI: same buffer + 1 mg/mL acetylated BSA; ITC: 20 mM Tris-HCl pH 7.5, 1 mM …
Hfq, sequence (P0A6X3 whole entry): as the sequence (P0A6X3 whole entry, one chain of several) above

PNPase delta-S1 = target: T3, PNPase delta-S1 (UniProt P05055); test: EMSA; settings: EMSA: 20 mM Tris pH 7.5, 100 mM NaCl, 1 mM MgCl2, 1 mM DTT, 30 C, 0.2 uM RNA; BLI: same buffer + 1 mg/mL acetylated BSA; ITC: 20 mM Tris-HCl pH 7.5, 1 mM …
T3 sequence: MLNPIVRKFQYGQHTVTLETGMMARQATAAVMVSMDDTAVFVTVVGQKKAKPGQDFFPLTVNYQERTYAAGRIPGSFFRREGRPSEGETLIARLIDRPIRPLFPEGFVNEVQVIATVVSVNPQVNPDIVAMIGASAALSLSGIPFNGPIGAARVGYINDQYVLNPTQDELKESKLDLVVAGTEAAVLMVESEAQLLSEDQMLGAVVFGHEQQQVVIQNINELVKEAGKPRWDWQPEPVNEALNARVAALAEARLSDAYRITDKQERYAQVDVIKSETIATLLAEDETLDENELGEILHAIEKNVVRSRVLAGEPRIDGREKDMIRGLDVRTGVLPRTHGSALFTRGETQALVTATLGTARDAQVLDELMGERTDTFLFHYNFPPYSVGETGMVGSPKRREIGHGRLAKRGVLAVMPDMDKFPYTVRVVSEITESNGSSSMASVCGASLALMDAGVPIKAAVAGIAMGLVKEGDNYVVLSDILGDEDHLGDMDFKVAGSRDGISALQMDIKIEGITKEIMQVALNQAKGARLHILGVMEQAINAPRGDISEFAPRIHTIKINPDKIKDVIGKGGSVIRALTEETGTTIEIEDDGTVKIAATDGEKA

PNPase delta-KH delta-S1 = target: T4, PNPase delta-KH delta-S1 (UniProt P05055); test: EMSA; settings: EMSA: 20 mM Tris pH 7.5, 100 mM NaCl, 1 mM MgCl2, 1 mM DTT, 30 C, 0.2 uM RNA; BLI: same buffer + 1 mg/mL acetylated BSA; ITC: 20 mM Tris-HCl pH 7.5, 1 mM …
T4 sequence: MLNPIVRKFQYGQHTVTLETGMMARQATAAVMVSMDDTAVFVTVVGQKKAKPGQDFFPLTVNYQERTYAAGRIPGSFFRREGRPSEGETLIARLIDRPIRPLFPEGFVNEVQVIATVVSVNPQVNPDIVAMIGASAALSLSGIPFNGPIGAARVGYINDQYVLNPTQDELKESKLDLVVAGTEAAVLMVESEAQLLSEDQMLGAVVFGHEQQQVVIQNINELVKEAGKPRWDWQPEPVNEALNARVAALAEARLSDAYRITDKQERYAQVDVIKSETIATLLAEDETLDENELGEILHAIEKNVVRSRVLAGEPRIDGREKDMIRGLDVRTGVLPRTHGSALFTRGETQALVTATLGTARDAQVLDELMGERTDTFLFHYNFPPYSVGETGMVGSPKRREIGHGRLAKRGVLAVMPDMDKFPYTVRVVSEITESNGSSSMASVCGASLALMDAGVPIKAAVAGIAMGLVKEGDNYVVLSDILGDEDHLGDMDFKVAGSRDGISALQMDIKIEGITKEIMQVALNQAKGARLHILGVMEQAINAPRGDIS

[6] = system: PNPase S437-9A (active site mutant); test: BLI; settings: EMSA: 20 mM Tris pH 7.5, 100 mM NaCl, 1 mM MgCl2, 1 mM DTT, 30 C, 0.2 uM RNA; BLI: same buffer + 1 mg/mL acetylated BSA; ITC: 20 mM Tris-HCl pH 7.5, 1 mM …
PNPase [7] = test: BLI; settings: EMSA: 20 mM Tris pH 7.5, 100 mM NaCl, 1 mM MgCl2, 1 mM DTT, 30 C, 0.2 uM RNA; BLI: same buffer + 1 mg/mL acetylated BSA; ITC: 20 mM Tris-HCl pH 7.5, 1 mM …
PNPase [8] = test: ITC; settings: no phosphate, 1 mM Mg2+, 30 C, N = 1.01, EMSA: 20 mM Tris pH 7.5, 100 mM NaCl, 1 mM MgCl2, 1 mM DTT, 0.2 uM RNA, BLI: same buffer + 1 mg/mL acetylated …, ITC: 20 mM Tris-HCl pH 7.5, 1 mM MgCl2
PNPase [9] = target: T2, PNPase; test: ITC; settings: EMSA: 20 mM Tris pH 7.5, 100 mM NaCl, 1 mM MgCl2, 1 mM DTT, 30 C, 0.2 uM RNA; BLI: same buffer + 1 mg/mL acetylated BSA; ITC: 20 mM Tris-HCl pH 7.5, 1 mM …

Substance	binding [3]	binding (PNPase [4])	binding [5]	binding (Hfq)	binding (PNPase delta-S1)	other results
GCGAUCAGGAAGACCCUCGCGGAGAACCUGAAAGCACGACAUUGCUCACAUUGCUUCCAGUAUUACUUAGCCAGCCGGGUGCUGGCUUUUUUUUU [5'-biotin RyhB (9U)]						pKd [1]: 6.83; pKd (PNPase [2]): 7.80
GCUGAAAAACAUAACCCAUAAAAUGCUAGCUGUACCAGGAACCACCUCCUUAGCCUGUGUAAUCUCCCUUACACGGGCUUAUUUUUU [CyaR]	binds more weakly	binds	binds	binds	binds more weakly	
GCGAUCAGGAAGACCCUCGCGGAGAACCUGAAAGCACGACAUUGCUCACAUUGCUUCCAGUAUUACUUAGCCAGCCGGGUGCUGGCUUUUUUUUU [RyhB (9U)]	binds more weakly	binds	binds	binds	binds more weakly	binding (PNPase delta-KH delta-S1): binds more weakly
5'-biotin RyhB (9U)						pKd [6]: 6.83; pKd (PNPase [7]): 7.80
RyhB (4U)						pKd (PNPase [8]): 7.07
GCGAUCAGGAAGACCCUCGCGGAGAACCUGAAAGCACGACAUUGCUCACAUUGCUUCCAGUAUUACUUAGCCAGCCGGGUGCUGGCUUUU [RyhB (4U)]						pKd (PNPase [9]): 7.07
